Target: BRD4-BD1 (recombinant, NMR and fluorescence anisotropy) (UniProt O60885)
Experiment: fluorescence polarisation

Ki: > 3 mM
Substance: Twist-K73ac/K76ac peptide (residues 68-79) (from UniProt Q15672 68-79)

From PMC4004960
